Assay results: patent US20220332812A1, “TREATMENT METHODS FOR EYE DISORDERS” (University of Pittsburgh - of the Commonwealth System of …, priority 2019, published 2022)
Each block holds one molecule with its values, some of them ahead of it.

Tests used:
[1] = test system: βA3/A1-crystallin
[2] = test system: diabetic Nuc1 rats; test: retinal function by electroretinography (ERG) in diabetic Nuc1 rats; format: in vivo, rat; conditions: FIGS. 20A-20B
Excerpt: Therefore, βA1-crystallin is a first of its kind inhibitor that can be used as a therapy for DR.

[3] = molecular target: T1, PTP1B (Homo sapiens, UniProt P18031); test: human proteome high-throughput array, βA3/A1-crystallin binding partners; parameters: purchased CDI Laboratories, Inc; conditions: human proteome high-throughput array (CDI Laboratories)
T1 sequence (P18031 1-435): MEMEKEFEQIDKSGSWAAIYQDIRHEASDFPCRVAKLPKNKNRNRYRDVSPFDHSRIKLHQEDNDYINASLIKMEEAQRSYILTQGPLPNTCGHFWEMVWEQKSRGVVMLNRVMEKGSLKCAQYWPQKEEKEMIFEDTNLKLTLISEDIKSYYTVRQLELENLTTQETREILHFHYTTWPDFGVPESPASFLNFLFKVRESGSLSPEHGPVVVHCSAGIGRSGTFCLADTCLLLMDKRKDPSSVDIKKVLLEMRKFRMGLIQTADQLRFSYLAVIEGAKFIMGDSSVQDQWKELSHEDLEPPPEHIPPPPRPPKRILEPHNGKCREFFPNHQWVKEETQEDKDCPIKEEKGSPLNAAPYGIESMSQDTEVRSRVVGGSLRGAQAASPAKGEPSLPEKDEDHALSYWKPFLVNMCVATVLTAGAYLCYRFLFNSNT

[4] = molecular target: T1, PTP1B; test: pull-down assay; format: binding
[5] = molecular target: T2, PTP1B (Rattus norvegicus, UniProt P20417); test: co-immunoprecipitation in astrocytes; conditions: wild-type astrocytes; binding lost in Nuc1 cells
T2 construct: endogenous in cells; host or cells: astrocytes from wild-type and Nuc1 rats
T2 sequence (P20417 1-432): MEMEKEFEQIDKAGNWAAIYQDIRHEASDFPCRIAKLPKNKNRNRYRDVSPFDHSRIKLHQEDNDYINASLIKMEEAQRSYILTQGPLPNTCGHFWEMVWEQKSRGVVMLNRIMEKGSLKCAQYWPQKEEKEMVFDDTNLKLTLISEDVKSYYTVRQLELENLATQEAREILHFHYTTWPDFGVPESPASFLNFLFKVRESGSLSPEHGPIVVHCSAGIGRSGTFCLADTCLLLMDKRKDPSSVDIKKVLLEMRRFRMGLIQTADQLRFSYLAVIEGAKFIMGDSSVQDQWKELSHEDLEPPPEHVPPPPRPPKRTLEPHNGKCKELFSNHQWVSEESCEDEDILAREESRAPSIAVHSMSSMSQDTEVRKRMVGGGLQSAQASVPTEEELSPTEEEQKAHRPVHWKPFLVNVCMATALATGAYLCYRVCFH

[6] = molecular target: T1, PTP1B; test: PTP activity kinetics, Lineweaver Burk plots; format: biochemical; conditions: FIG. 13
[7] = test system: NOD-SCID mice; test: sub-retinal injection in NOD-SCID mice, OCT; format: in vivo, mouse
Excerpt: (§1) NOD-SCID mice (NOD.CB17-Prkdescid/J, Jackson Laboratories, USA, male, 4-5 weeks old) were used for the study. A large sample size, n=10, was taken to nullify any experimental anomaly. Mice were anaesthetized and sub-retinal injections of neutrophils from different experimental groups or recombinant LCN-2 protein were given as described previously (Maruotti et al., Proc. Natl. Acad. Sci. USA., 112: 10950-10955 (2015)). Seven days after treatment, the NOD-SCID mice were anaesthetized by intraperitoneal injection of a ketamine and xylazine mixture and then subjected to Fundus imaging along with OCT analysis using the Bioptigen Envisu R2210 system. OCT images were analyzed on optical sections (100 sections per retina) from each eye ranging from −2.0 to +2.0 mm with respect to the optic nerve head (ONH) using the FIJI-ImageJ (NIH) plugin provided with the instrument along with Diver 2.4 software (Bioptigen). After the experiment, the animals were euthanized with CO2 gas and the eyes were harvested for further experiments. […]

[8] = molecular target: T3, Dab2 (Homo sapiens, UniProt P98082); test: HuProt human proteome microarray, LCN-2 binding partners; conditions: recombinant LCN-2 probed at 1 μg/mL, Z-score cutoff 6
T3 construct: purchased CDI NextGen Proteomics, MD, USA HuProt v3.1
T3 sequence (P98082 1-770): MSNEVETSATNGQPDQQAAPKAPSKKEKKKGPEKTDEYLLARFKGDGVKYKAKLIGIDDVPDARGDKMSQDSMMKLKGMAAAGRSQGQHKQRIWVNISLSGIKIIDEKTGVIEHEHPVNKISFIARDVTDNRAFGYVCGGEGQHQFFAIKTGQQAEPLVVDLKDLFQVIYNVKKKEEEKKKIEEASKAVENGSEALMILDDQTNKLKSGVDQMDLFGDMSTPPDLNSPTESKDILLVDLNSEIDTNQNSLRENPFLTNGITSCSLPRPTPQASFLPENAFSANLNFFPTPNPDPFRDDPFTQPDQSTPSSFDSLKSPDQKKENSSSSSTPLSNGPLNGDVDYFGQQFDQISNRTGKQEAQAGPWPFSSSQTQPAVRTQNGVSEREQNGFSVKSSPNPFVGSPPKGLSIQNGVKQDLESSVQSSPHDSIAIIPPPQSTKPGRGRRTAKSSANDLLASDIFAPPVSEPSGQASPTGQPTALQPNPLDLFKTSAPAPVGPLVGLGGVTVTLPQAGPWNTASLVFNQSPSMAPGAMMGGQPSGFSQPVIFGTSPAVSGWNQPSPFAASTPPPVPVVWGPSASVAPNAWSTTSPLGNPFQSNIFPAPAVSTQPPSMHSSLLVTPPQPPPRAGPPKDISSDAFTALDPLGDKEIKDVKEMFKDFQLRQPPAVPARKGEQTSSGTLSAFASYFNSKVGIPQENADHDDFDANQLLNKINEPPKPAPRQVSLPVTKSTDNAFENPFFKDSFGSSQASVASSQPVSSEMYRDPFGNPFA
Experimental: The human proteome microarray 2.0 analysis was performed as a paid service from CDI NextGen Proteomics, MD, USA. Recombinant LCN-2 was analyzed for protein-protein interaction profiling on the HuProt™ v3.1 human proteome array and the sample was probed on array plates at 1 μg/mL, with data analyzed using GenePix software. Hit identification was assessed as the ratio of median value of the foreground to the median of the surrounding background for each protein probe on the microarray, followed by normalization to the median value of all neighboring probes within the […] window size and represented as the significance of the probe binding signal difference from random noise (Z-Score). The cutoff Z-score was 6 in this study for the triplicate analysis; only protein interactions with a Z-score above 6 were considered.
The above-described observations prompted the further investigation of the possible molecular mechanisms by which neutrophils infiltrate into the retina and thereby contribute to the pathogenesis of AMD. It has previously been shown that LCN-2 regulates neutrophil chemotaxis and cell migration in cancer cells (Shao et al., J. Invest. Dermatol., 136, 1418-1428 (2016), and Du et al., Biochim. Biophys. Acta, 1853: 2240-2250 (2015)). […]

[9] = test system: NOD-SCID mice; test: retinal sections of injected NOD-SCID mice: hematoxylin-eosin staining and immunofluorescence; format: in vivo, mouse
Experimental: Freshly enucleated eyes were fixed in 2% paraformaldehyde (PFA) for 10 min and then the anterior parts (cornea, lens, and attached iris pigmented epithelium) were removed. The resulting posterior eyecups were fixed in 2% PFA for 1 h at room temperature either for cryosections or RPE/retina flat mount. For cryosections, the eyecups were dehydrated through gradient sucrose solutions and embedded in OCT and for RPE/retina flatmounts, tissues were removed after the eyecup was quartered like a petaloid structure. The resulting eyecup was further cut radially into eight pieces from the optic nerve head to the periphery. Immunostaining on human/mouse retina sections or on retina/RPE flatmounts were performed by using appropriate primary antibody (1:100) and incubated at 4° C. overnight. The RPE/retina flatmounts or human or mouse retina sections were washed with 1×TBS thrice and then stained with appropriate secondary antibodies (1:300) with 1 μg/mL DAPI (Sigma Aldrich, USA) in the dark at room temperature for 2 h. The tissue sections or flatmounts were washed 6 times with 1×TBS. The tissues were mounted on a cover slip with DAKO mounting agent and then visualized under a confocal microscope (Zeiss LSM710, Switzerland).
as §1, with “Seven days after treatment, the NOD-SCID mice were anaesthetized by intraperitoneal injection of a ketamine and xylazine mixture and then subjected to Fundus imaging along with OCT analysis using the Bioptigen Envisu R2210 system.” left out, “(Bioptigen).” for “(Bioptigen). After the experiment, the animals were euthanized with CO2 gas and the eyes were harvested for further experiments.”

Molecule: PTP1B (pull-down assay and enzyme kinetics)
Lineweaver Burk plots of PTP activity (Km and Vmax) [1]: Cryba1 treatment decreases the Km and Vmax of PTP activity

retinal function (ERG) [2]: rescues retinal function abnormality
Molecule: CC(C)[C@@H](CC[C@@H](C)[C@H]1CC[C@H]2[C@@H]3[C@H](O)C[C@H]4C[C@@H](NCCCNCCCCNCCCN)CC[C@]4(C)[C@H]3CC[C@]12C)OS(=O)(=O)O [MSI-1436]

interaction with PTP1B [3]: interact with PTP1B
binding to PTP1B [4]: bound to PTP1B
binding partner by co-immunoprecipitation [5]: PTP1B was a binding partner
mode of PTP1B inhibition [6]: uncompetitive inhibitor of PTP1B
B1: βA3/A1-crystallin: two closely related polypeptides encoded by Cryba1, produced by two different translational start sites; biological inhibitor binding PTP1B (protein)
chain: METQTVQRELETLPTTKMAQTNPMPGSMGPWKITIYDQENFQGKRMEFTSSCPNVSERSFDNVRSLKVECGAWIGYEHTSFCGQQFILERGEYPRWDAWSGSNAYHIERLMSFRPICSANHKESKITIFEKENFIGRQWEICDDYPSLQAMGWFNNEVGSMKIQCGAWVCYQYPGYRGYQYILECDHHGGDYKHWREWGTHAQTSQIQSIRRIQQ
Km of PTP activity [6]: decreases
Vmax of PTP activity [6]: decreases

interaction with Dab2 [8]: interact with Dab2
B2: recombinant LCN-2: recombinant Lipocalin-2 protein, full length LCN-2 cDNA expressed in E. coli (protein)
chain: QDSTQNLIPAPSLLTVPLQPDFRSDQFRGRWYVVGLAGNAVQKKTEGSFTMYSTIYELQENNSYNVTSILVRDQDQGCRYWIRTFVPSSRAGQFTLGNMHRYPQVQSYNVQVATTDYNQFAMVFFRKTSENKQYFKITLYGRTKELSPELKERFTRFAKSLGLKDDNIIFSVPTDQCIDN
OCT retinal structure after injection of WT neutrophils pre-treated with the substance ([7]; NOD-SCID mice injected subretinally, IFNλ 200 U/mL, conditioned media 1:1 diluted, LCN-2 10 pg/mL, FIG. 4(iii)-(v)): apparent changes in the ONL and INL layers (asterisks), concomitant with severe loss of RPE and IS+OS layer
OCT: alterations of retinal layers ([7]; NOD-SCID mice, sub-retinal injection, after 7 days): alterations in the RPE and photoreceptor (inner and outer segments) layers
hematoxylin-eosin staining of retinal sections ([9]; NOD-SCID mice, relative to vehicle control or WT neutrophil injected mice): degenerative changes in the outer nuclear layer (ONL) along with photoreceptor layer
thickness of retinal layers from sections by spider plot ([9]; NOD-SCID mice, relative to vehicle or WT neutrophil-treated groups): severe loss or thinning of IS/OS and RPE layers
rhodopsin and RPE 65 staining (photoreceptor and RPE cell loss) ([9]; immunofluorescence, retina of NOD-SCID mice, with respect to controls): reduced staining
